The labels stand for the following.
B1: mCCL19, unlabeled (ligand, mouse, UniProt O70460 26-108, looked up)
chain: GANDAEDCCLSVTQRPIPGNIVKAFRYLLNEDGCRVPAVVFTTLRGYQLCAPPDQPWVDRIIRRLKKSSAKNKGNSTRRSPVS
notes: CCL19, mouse
B2: hCXCL13, unlabeled (ligand, human, UniProt O43927 23-109, looked up)
chain: VLEVYYTSLRCRCVQESSVFIPRRFIDRIQILPRGNGCPRKEIIVWKKNKSIVCVDPQAEWIQRMMEVLRKRSSSTLPVPVFKRKIP
notes: CXCL13, human
B3: murine GPR182 (mGPR182), expressed from mGPR182 T2A GFP in 300.19 pre-B cells (receptor, mouse, UniProt P43142 1-398, looked up)
chain: MSVIPSPRPVSTLEPDNDFRDIHNWTELLHLFNQTFTDCHIEFNENTKHVVLFVFYLAIFVVGLVENVLVICVNCRRSGRVGMLNLYILNMAIADLGIILSLPVWMLEVMLEYTWLWGSFSCRFIHYFYLVNMYSSIFFLTCLSIDRYVTLTNTSPSWQRHQHRIRRAVCAGVWVLSAIIPLPEVVHIQLLDGSEPMCLFLAPFETYSAWALAVALSATILGFLLPFLLIAVFNILTACRLRRQRQTESRRHCLLMWAYIVVFAICWLPYQVTMLLLTLHGTHIFLHCHLVNLLYFFYEIIDCFSMLHCVANPILYNFLSPSFRGRLLSLVVRYLPKEQARAAGGRASSSSSTQHSIIITKEGSLPAAADLHTHPIRNVQASSPPPNTSPTLCNSVAS
notes: GPR182, mouse; Expressed fused via a self-cleaving T2A peptide to GFP (backbone pME-Cas9-T2A-GFP, Addgene 63155); receptor and GFP are split post-translationally; also called ACKR5 (proposed); source: 300.19 mouse pre-B cells, stably transfected, on cells
B4: mCCL28, fluorescently labelled (ligand, mouse, UniProt Q9JIL2 17-130, looked up)
chain: FQTSEAILPMASSCCTEVSHHVSGRLLERVSSCSIQRADGDCDLAAVILHVKRRRICISPHNRTLKQWMRASEVKKNGRENVCSGKKQPSRKDRKGHTTRKHRTRGTHRHEASR
modifications: fluorescent label (AF647 or Dy649), site not stated
notes: CCL28, mouse; also called CCL28-AF647; mCCL28-AF647
B5: mCCL28, unlabeled (ligand, mouse, UniProt Q9JIL2 17-130, looked up)
chain: B4 chain
notes: CCL28, mouse
B6: hCCL19, unlabeled (ligand, human, UniProt Q99731 22-98, looked up)
chain: GTNDAEDCCLSVTQKPIPGYIVRNFHYLLIKDGCRVPAVVFTTLRGRQLCAPPDQPWVERIIQRLQRTSAKMKRRSS
notes: CCL19, human
B7: mCCL20, unlabeled (ligand, mouse, UniProt O89093 28-97, looked up)
chain: ASNYDCCLSYIQTPLPSRAIVGFTRQMADEACDINAIIFHTKKRKSVCADPKQNWVKRAVNLLSLRVKKM
notes: CCL20, mouse

Common to all, as to conditions: one partner purified
For assay [1], the target named is B3. The experiment in a line: flow cytometry on cells; competition binding at 4°C: 300.19 cells expressing mGPR182 or hGPR182 with 3 nM fluorescent chemokine and increasing concentrations of its unlabeled counterpart, 45 min. On the technique in general: In flow cytometry, cells or beads pass a laser one at a time.
The target of assay [2] is B3. The assay is described as follows: flow cytometry on cells; competition scavenging at 37°C: 300.19 cells expressing mGPR182 or hGPR182 with 3 nM fluorescent chemokine and increasing concentrations of its unlabeled counterpart, 45 min.
Assay [3] has as its target T1, human GPR182 (hGPR182), expressed from hGPR182 T2A GFP in 300.19 pre-B cells (human, UniProt O15218 1-404).
T1 construct: GPR182, human; Expressed fused via a self-cleaving T2A peptide to GFP (backbone pME-Cas9-T2A-GFP, Addgene 63155); split post-translationally; also called ACKR5 (proposed); source: 300.19 mouse pre-B cells, stably transfected, on cells
The experiment in a line: flow cytometry on cells; competition binding at 4°C: 300.19 cells expressing mGPR182 or hGPR182 with 3 nM fluorescent chemokine and increasing concentrations of its unlabeled counterpart, 45 min.

For assay [4], the target named is T1, human GPR182 (hGPR182), expressed from …. The experiment in a line: flow cytometry on cells; competition scavenging at 37°C: 300.19 cells expressing mGPR182 or hGPR182 with 3 nM fluorescent chemokine and increasing concentrations of its unlabeled counterpart, 45 min.
The target in the next assay is T2, hCXCL12, unlabeled (human, UniProt P48061 22-93).
T2 construct: CXCL12, human; also called X12
The experiment in a line: flow cytometry on cells; competition binding at 4°C: 300.19 cells expressing mGPR182 or hGPR182 with 3 nM fluorescent chemokine and increasing concentrations of its unlabeled counterpart, 45 min.

The target of assay [5] is B3. The experiment in a line: flow cytometry on cells; direct binding: 300.19 cells expressing GPR182 T2A GFP with increasing concentrations of fluorescently labelled chemokine, 45 min; temperature not stated for this experiment.

For orientation: Kd means the free concentration of one partner at which half of the binding sites on the other are occupied at equilibrium, for simple one-to-one binding. Higher therefore signals a looser complex.

In assay [1], B1 yielded a Kd of 180 nM. Besides, the “Kd (competition scavenging)” value in assay [2] was 250 nM.

For the molecule B2, the Kd in assay [3] and in assay [1] was 20 nM in each case. Also, the entries for the “Kd (competition scavenging)” value in assay [4] and in assay [2] were 9 nM and 13 nM, respectively.

Molecule B3 came in with a Kd in the assay with hCXCL12, unlabeled of 120 nM.

On to B4, for which, in assay [5], the Kd is ~8.5 nM.

As for B5, the values for the Kd in assay [3] and in assay [1] were 28 nM and 10 nM, respectively. Besides, the “Kd (competition scavenging)” value came out at 52 nM in assay [4] and 14 nM in assay [2].

In assay [3], B6 came in with a Kd of 55 nM. In addition, the “Kd (competition scavenging)” value in assay [4] came out at 75 nM.

The molecule B7 yielded a Kd in assay [1] of 120 nM.

(Values after PMC10405735 (Frontiers in Immunology, 2023).)
